Source: patent publication US20220411504A1 (Janssen / Centocor, published 2022)

Columns and labels:
[1] = target: HLA-G on cells (K562-HLA-G and HLA-G expressing tumor cells) (human); test: cell-based or functional assay
[2] = target: T1, MHGW8 (B2m-3(G4S)-HLA-G1-G4S-Avi) (human, biotinylated (Avi tag) in the blocking assay); test: SPR, mAb captured by goat anti-human Fc, MHGW8 flowed
T1 construct: Single chain β2m-HLA-G1; also called soluble HLA-G1 extracellular domain; recombinant biotinylated HLA-G1

Row | Binder | Cytotoxicity, EC50 (T cell-mediated, NCI-H2009-b2m target cells, 72 hr) [1] | other results
1 | HC3B232 (bispecific antibody, human IgG1, kappa, L234A L235A) scFv: DIQMTQSPSSLSASVGDRVTITCRARQSIGTAIHWYQQKPGKAPKLLIKYASESISGVPSRFSGSGSGTDFTLTISSVQPEDFATYYCQQSGSWPYTFGQGTKLEIKGGSEGKSSGSGSESKSTGGSEVQLVESGGGLVKPGGSLRLSCAASGFTFSRYNMNWVRQAPGKGLEWVSSISTSSNYIYYADSVKGRFTFSRDNAKNSLDLQMSGLRAEDTAIYYCTRGWGPFDYWGQGTLVTVSSEPKSSDKTHTCPPCPAPEAAGGPSVFLFPPKPKDTLMISRTPEVTCVVVSVSHEDPEVKFNWYVDGVEVHNAKTKPREEQYNSTYRVVSVLTVLHQDWLNGKEYKCKVSNKALPAPIEKTISKAKGQPREPQVYVYPPSREEMTKNQVSLTCLVKGFYPSDIAVEWESNGQPENNYKTTPPVLDSDGSFALVSKLTVDKSRWQQGNVFSCSVMHEALHNHYTQKSLSLSPGK heavy: QVQLQQSGPGLVKPSQTLSLTCAISGDSVSSNSAAWNWIRQSPSRGLEWLGRTYYRSKWYNDYAVSVKSRITINPDTSKNQISLQLNSVTPEDTAVYYCAGDRRYGIVGLPFAYWGQGTLVTVSSASTKGPSVFPLAPSSKSTSGGTAALGCLVKDYFPEPVTVSWNSGALTSGVHTFPAVLQSSGLYSLSSVVTVPSSSLGTQTYICNVNHKPSNTKVDKKVEPKSCDKTHTCPPCPAPEAAGGPSVFLFPPKPKDTLMISRTPEVTCVVVSVSHEDPEVKFNWYVDGVEVHNAKTKPREEQYNSTYRVVSVLTVLHQDWLNGKEYKCKVSNKALPAPIEKTISKAKGQPREPQVYVLPPSREEMTKNQVSLLCLVKGFYPSDIAVEWESNGQPENNYLTWPPVLDSDGSFFLYSKLTVDKSRWQQGNVFSCSVMHEALHNHYTQKSLSLSPG light: not shown | 0.00677 nM | 
2 | HC3B231 (bispecific antibody, human IgG1, kappa, L234A L235A) scFv: QSALTQPASVSGSPGQSITISCTGTSSNIGTYKFVSWYQQHPGKAPKVMIYEVSKRPSGVSNRFSGSKSGNTASLTISGLQAEDEADYYCVSYAGSGTLLFGGGTKLTVLGGSEGKSSGSGSESKSTGGSQVQLQQSGPGLVKPSQTLSLTCAISGDSVFNNNAAWSWIRQSPSRGLEWLGRTYYRSKWLYDYAVSVKSRITINPDTSKNQFSLQLNSVTPEDTAVYYCARGYSSSFDYWGQGTLVTVSSEPKSSDKTHTCPPCPAPEAAGGPSVFLFPPKPKDTLMISRTPEVTCVVVSVSHEDPEVKFNWYVDGVEVHNAKTKPREEQYNSTYRVVSVLTVLHQDWLNGKEYKCKVSNKALPAPIEKTISKAKGQPREPQVYVYPPSREEMTKNQVSLTCLVKGFYPSDIAVEWESNGQPENNYKTTPPVLDSDGSFALVSKLTVDKSRWQQGNVFSCSVMHEALHNHYTQKSLSLSPG heavy: QVQLQQSGPGLVKPSQTLSLTCAISGDSVSSNSAAWNWIRQSPSRGLEWLGRTYYRSKWYNDYAVSVKSRITINPDTSKNQISLQLNSVTPEDTAVYYCAGDRRYGIVGLPFAYWGQGTLVTVSSASTKGPSVFPLAPSSKSTSGGTAALGCLVKDYFPEPVTVSWNSGALTSGVHTFPAVLQSSGLYSLSSVVTVPSSSLGTQTYICNVNHKPSNTKVDKKVEPKSCDKTHTCPPCPAPEAAGGPSVFLFPPKPKDTLMISRTPEVTCVVVSVSHEDPEVKFNWYVDGVEVHNAKTKPREEQYNSTYRVVSVLTVLHQDWLNGKEYKCKVSNKALPAPIEKTISKAKGQPREPQVYVLPPSREEMTKNQVSLLCLVKGFYPSDIAVEWESNGQPENNYLTWPPVLDSDGSFFLYSKLTVDKSRWQQGNVFSCSVMHEALHNHYTQKSLSLSPG light: not shown | 0.126 nM | 
3 | HC3B124 (bispecific antibody, human IgG1, lambda, L234A L235A) heavy: EVQLVESGGGLVQPGGSLRLSCAASGFTFNTYAMNWVRQAPGKGLEWVARIRSKYNNYATYYAASVKGRFTISRDDSKNSLYLQMNSLKTEDTAVYYCVRHGNFGNSYVSWFAYWGQGTLVTVSSASTKGPSVFPLAPSSKSTSGGTAALGCLVKDYFPEPVTVSWNSGALTSGVHTFPAVLQSSGLYSLSSVVTVPSSSLGTQTYICNVNHKPSNTKVDKKVEPKSCDKTHTCPPCPAPEAAGGPSVFLFPPKPKDTLMISRTPEVTCVVVSVSHEDPEVKFNWYVDGVEVHNAKTKPREEQYNSTYRVVSVLTVLHQDWLNGKEYKCKVSNKALPAPIEKTISKAKGQPREPQVYVYPPSREEMTKNQVSLTCLVKGFYPSDIAVEWESNGQPENNYKTTPPVLDSDGSFALVSKLTVDKSRWQQGNVFSCSVMHEALHNHYTQKSLSLSPG light: QTVVTQEPSLTVSPGGTVTLTCRSSTGAVTTSNYANWVQQKPGQAPRGLIGGTNKRAPGTPARFSGSLLGGKAALTLSGVQPEDEAEYYCALWYSNLWVFGGGTKLTVLGQPKAAPSVTLFPPSSEELQANKATLVCLISDFYPGAVTVAWKADSSPVKAGVETTTPSKQSNNKYAASSYLSLTPEQWKSHRSYSCQVTHEGSTVEKTVAPTECS scFv: DIVMTQSPDSLAVSLGERATINCKSSQSVLHSSNNKNYLTWFQQKPGQPPKLLIYWASTRESGVPDRFSGSGSGTDFTLTISSLQAEDVAVYYCHQYYSTPPTFGQGTKVEIKGGSEGKSSGSGSESKSTGGSQVQLQQSGPGLVKPSQTLSLTCAISGDSVSSNSAAWNWIRQSPSRGLEWLGRTYYRSKWYNDYAVSVKSRITINPDTSKNQISLQLNSVTPEDTAVYYCAGDRRYGIVGLPFAYWGQGTLVTVSSEPKSSDKTHTCPPCPAPEAAGGPSVFLFPPKPKDTLMISRTPEVTCVVVSVSHEDPEVKFNWYVDGVEVHNAKTKPREEQYNSTYRVVSVLTVLHQDWLNGKEYKCKVSNKALPAPIEKTISKAKGQPREPQVYVLPPSREEMTKNQVSLLCLVKGFYPSDIAVEWESNGQPENNYLTWPPVLDSDGSFFLYSKLTVDKSRWQQGNVFSCSVMHEALHNHYTQKSLSLSPG | 0.00385 nM | 
4 | HC3B235 (bispecific antibody, human IgG1, kappa, L234A L235A) scFv: QTVVTQEPSLTVSPGGTVTLTCRSSTGAVTTSNYANWVQQKPGQAPRGLIGGTNKRAPGTPARFSGSLLGGKAALTLSGVQPEDEAEYYCALWYSNLWVFGGGTKLTVLGGSEGKSSGSGSESKSTGGSEVQLVESGGGLVQPGGSLRLSCAASGFTFNTYAMNWVRQAPGKGLEWVARIRSKYNNYATYYAASVKGRFTISRDDSKNSLYLQMNSLKTEDTAVYYCVRHGNFGNSYVSWFAYWGQGTLVTVSSEPKSSDKTHTCPPCPAPEAAGGPSVFLFPPKPKDTLMISRTPEVTCVVVSVSHEDPEVKFNWYVDGVEVHNAKTKPREEQYNSTYRVVSVLTVLHQDWLNGKEYKCKVSNKALPAPIEKTISKAKGQPREPQVYVYPPSREEMTKNQVSLTCLVKGFYPSDIAVEWESNGQPENNYKTTPPVLDSDGSFALVSKLTVDKSRWQQGNVFSCSVMHEALHNHYTQKSLSLSPG heavy: QVQLQQSGPGLVKPSQTLSLTCAISGDSVSSNRAAWNWIRQSPSRGLEWLGRTYYRSKWYNDYAVSVKSRITINPDTSKNQISLQLNSVTPEDTAVYYCARVRPGIPFDYWGQGTPVTVSSASTKGPSVFPLAPSSKSTSGGTAALGCLVKDYFPEPVTVSWNSGALTSGVHTFPAVLQSSGLYSLSSVVTVPSSSLGTQTYICNVNHKPSNTKVDKKVEPKSCDKTHTCPPCPAPEAAGGPSVFLFPPKPKDTLMISRTPEVTCVVVSVSHEDPEVKFNWYVDGVEVHNAKTKPREEQYNSTYRVVSVLTVLHQDWLNGKEYKCKVSNKALPAPIEKTISKAKGQPREPQVYVLPPSREEMTKNQVSLLCLVKGFYPSDIAVEWESNGQPENNYLTWPPVLDSDGSFFLYSKLTVDKSRWQQGNVFSCSVMHEALHNHYTQKSLSLSPG light: not shown | 0.0837 nM | 
5 | HC3B230 (bispecific antibody, human IgG1, kappa, L234A L235A) scFv: QTVVTQEPSLTVSPGGTVTLTCRSSTGAVTTSNYANWVQQKPGQAPRGLIGGTNKRAPGTPARFSGSLLGGKAALTLSGVQPEDEAEYYCALWYSNLWVFGGGTKLTVLGGSEGKSSGSGSESKSTGGSEVQLVESGGGLVQPGGSLRLSCAASGFTFNTYAMNWVRQAPGKGLEWVARIRSKYNNYATYYAASVKGRFTISRDDSKNSLYLQMNSLKTEDTAVYYCVRHGNFGNSYVSWFAYWGQGTLVTVSSEPKSSDKTHTCPPCPAPEAAGGPSVFLFPPKPKDTLMISRTPEVTCVVVSVSHEDPEVKFNWYVDGVEVHNAKTKPREEQYNSTYRVVSVLTVLHQDWLNGKEYKCKVSNKALPAPIEKTISKAKGQPREPQVYVYPPSREEMTKNQVSLTCLVKGFYPSDIAVEWESNGQPENNYKTTPPVLDSDGSFALVSKLTVDKSRWQQGNVFSCSVMHEALHNHYTQKSLSLSPG heavy: QVQLQQSGPGLVKPSQTLSLTCAISGDSVSSNSAAWNWIRQSPSRGLEWLGRTYYRSKWYNDYAVSVKSRITINPDTSKNQISLQLNSVTPEDTAVYYCAGDRRYGIVGLPFAYWGQGTLVTVSSASTKGPSVFPLAPSSKSTSGGTAALGCLVKDYFPEPVTVSWNSGALTSGVHTFPAVLQSSGLYSLSSVVTVPSSSLGTQTYICNVNHKPSNTKVDKKVEPKSCDKTHTCPPCPAPEAAGGPSVFLFPPKPKDTLMISRTPEVTCVVVSVSHEDPEVKFNWYVDGVEVHNAKTKPREEQYNSTYRVVSVLTVLHQDWLNGKEYKCKVSNKALPAPIEKTISKAKGQPREPQVYVLPPSREEMTKNQVSLLCLVKGFYPSDIAVEWESNGQPENNYLTWPPVLDSDGSFFLYSKLTVDKSRWQQGNVFSCSVMHEALHNHYTQKSLSLSPG light: not shown | 0.00992 nM | 
6 | MHGB737 (antibody, human IgG1, kappa, V domains shown, IgG1; also called GL-optimized B694) VH: EVQLLESGGGLVQPGGSLRLSCAASGFTFSSYAMHWVRQAPGKGLEWVSGISGSGFSTYYVDSVKGRFTISRDNSKNTLYLQMNSLRAEDTAVYYCAKDNLVAGTVFDYWGQGTLVTVSS VL: not shown |  | Kd [2]: 2.56 nM; koff [2]: 0.00031 s⁻¹; kon [2]: 200000 M⁻¹ s⁻¹
